According to doi:10.1101/2024.12.23.630085, “Accurate sequence-to-affinity models for SH2 domains from multi-round peptide binding assays coupled with free-energy regression” (bioRxiv, 2025):
Non-standard residues stand in square brackets, D forms with d. pY = N[C@@H](Cc1ccc(OP(=O)(O)O)cc1)C(=O)O

Tests used:
Conditions in all cases: both partners purified
Fyn SH2 domain (142-248) = molecular target: T1, Fyn SH2 domain (142-248) (human, UniProt P06241 142-248, biotin (on the AviTag)); test: fluorescence polarisation; competition mode; unlabelled phosphopeptide against 0.4 nM FITC-Ahx-GDG-pY-EEISPLLL-NH2 and 4.125 nM Fyn SH2, as printed (Tables S3 and S5)
T1 construct: SH2 domain of human Fyn kinase, residues 142-248; source: E. coli C43(DE3) with BirA helper plasmid, purified (HisTrap, anion exchange, Ulp1 cleavage, SEC); not shown: His6-SUMO, N-terminal, cleaved; AviTag, C-terminal, kept
T1 sequence (P06241 142-248): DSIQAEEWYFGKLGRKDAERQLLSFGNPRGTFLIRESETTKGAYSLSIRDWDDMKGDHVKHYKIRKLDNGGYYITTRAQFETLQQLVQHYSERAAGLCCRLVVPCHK

c-Src SH2 domain = molecular target: T2, c-Src SH2 domain (UniProt P12931-1 151-248, biotin (biotinylated SH2 domain of the selection)); test: fluorescence polarisation; competition mode; unlabelled phosphopeptide against 30 nM FITC-Ahx-GDG-pY-EEISPLLL-NH2 and 122.745 nM c-Src SH2 (123.745 to 125.745 in three rows; Table S3)
T2 construct: SH2 domain of c-Src kinase; source: purified

Lyn SH2 domain (121-228) = molecular target: T3, Lyn SH2 domain (121-228) (human, UniProt P07948 121-228, biotin (on the AviTag)); test: fluorescence polarisation; competition mode; unlabelled phosphopeptide against 30 nM FITC-Ahx-GDG-pY-EEISPLLL-NH2 and 106.5 nM Lyn SH2 (Table S3)
T3 construct: source: E. coli C43(DE3) with BirA helper plasmid, purified (HisTrap, anion exchange, Ulp1 cleavage, SEC); not shown: His6-SUMO, N-terminal, cleaved; AviTag, C-terminal, kept
T3 sequence (P07948 121-228): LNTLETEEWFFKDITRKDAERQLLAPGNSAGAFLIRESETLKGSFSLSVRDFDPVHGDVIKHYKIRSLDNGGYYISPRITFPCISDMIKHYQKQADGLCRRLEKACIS

Grb2 SH2 domain = molecular target: T4, Grb2 SH2 domain (UniProt P62993 60-152, biotin (biotinylated SH2 domain of the selection)); test: fluorescence polarisation; competition mode; unlabelled phosphopeptide against 30 nM FITC-Ahx-FDDPS(pY)VNVQN and 123 nM Grb2 SH2 (Table S3)
T4 construct: SH2 domain of the adapter protein Grb2; source: purified
T4 sequence (P62993 60-152): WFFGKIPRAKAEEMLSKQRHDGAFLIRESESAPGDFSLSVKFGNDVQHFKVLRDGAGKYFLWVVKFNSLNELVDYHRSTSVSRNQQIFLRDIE

B1: CLIP2 pY972 (peptide)
peptide: Ac-QSDQRR[pY]SLIDRG-NH2
SMILES: CC[C@H](C)[C@H](NC(=O)[C@H](CC(C)C)NC(=O)[C@H](CO)NC(=O)[C@H](Cc1ccc(OP(=O)(O)O)cc1)NC(=O)[C@H](CCCNC(=N)N)NC(=O)[C@H](CCCNC(=N)N)NC(=O)[C@H](CCC(N)=O)NC(=O)[C@H](CC(=O)O)NC(=O)[C@H](CO)NC(=O)[C@H](CCC(N)=O)NC(C)=O)C(=O)N[C@@H](CC(=O)O)C(=O)N[C@@H](CCCNC(=N)N)C(=O)NCC(N)=O
notes: flank added to the 11-residue stretch (surmised: last residue of the library's constant GQSGQ); CLIP2, human, around pY972; flank added to the 11-residue stretch (surmised: first residue of the library's constant GGQSG); source: synthetic peptide (SynPeptide, China)
Fyn SH2 domain (142-248)
  Kd: 78.5 nM

B2: CLIP2 pY972 R977P (peptide)
peptide: Ac-QSDQRR[pY]SLIDPG-NH2
SMILES: CC[C@H](C)[C@H](NC(=O)[C@H](CC(C)C)NC(=O)[C@H](CO)NC(=O)[C@H](Cc1ccc(OP(=O)(O)O)cc1)NC(=O)[C@H](CCCNC(=N)N)NC(=O)[C@H](CCCNC(=N)N)NC(=O)[C@H](CCC(N)=O)NC(=O)[C@H](CC(=O)O)NC(=O)[C@H](CO)NC(=O)[C@H](CCC(N)=O)NC(C)=O)C(=O)N[C@@H](CC(=O)O)C(=O)N1CCC[C@H]1C(=O)NCC(N)=O
notes: flank added to the 11-residue stretch (surmised: last residue of the library's constant GQSGQ); CLIP2, human, around pY972, natural variant R977P; flank added to the 11-residue stretch (surmised: first residue of the library's constant GGQSG); source: synthetic peptide (SynPeptide, China)
Fyn SH2 domain (142-248)
  Kd: 27 nM

B3: CBS pY308 (peptide)
peptide: Ac-QVEGIG[pY]DFIPTG-NH2
SMILES: CC[C@H](C)[C@H](NC(=O)CNC(=O)[C@H](CCC(=O)O)NC(=O)[C@@H](NC(=O)[C@H](CCC(N)=O)NC(C)=O)C(C)C)C(=O)NCC(=O)N[C@@H](Cc1ccc(OP(=O)(O)O)cc1)C(=O)N[C@@H](CC(=O)O)C(=O)N[C@@H](Cc1ccccc1)C(=O)N[C@H](C(=O)N1CCC[C@H]1C(=O)N[C@H](C(=O)NCC(N)=O)[C@@H](C)O)[C@@H](C)CC
notes: flank added to the 11-residue stretch (surmised: last residue of the library's constant GQSGQ); CBS, human, around pY308; flank added to the 11-residue stretch (surmised: first residue of the library's constant GGQSG); source: synthetic peptide (SynPeptide, China)
Fyn SH2 domain (142-248)
  Kd: 126 nM

B4: CBS pY308 G307S (peptide)
peptide: Ac-QVEGIS[pY]DFIPTG-NH2
SMILES: CC[C@H](C)[C@H](NC(=O)CNC(=O)[C@H](CCC(=O)O)NC(=O)[C@@H](NC(=O)[C@H](CCC(N)=O)NC(C)=O)C(C)C)C(=O)N[C@@H](CO)C(=O)N[C@@H](Cc1ccc(OP(=O)(O)O)cc1)C(=O)N[C@@H](CC(=O)O)C(=O)N[C@@H](Cc1ccccc1)C(=O)N[C@H](C(=O)N1CCC[C@H]1C(=O)N[C@H](C(=O)NCC(N)=O)[C@@H](C)O)[C@@H](C)CC
notes: flank added to the 11-residue stretch (surmised: last residue of the library's constant GQSGQ); CBS, human, around pY308, natural variant G307S; flank added to the 11-residue stretch (surmised: first residue of the library's constant GGQSG); source: synthetic peptide (SynPeptide, China)
Fyn SH2 domain (142-248)
  Kd: 185 nM

B5: SLAP-130 pY771 (peptide)
peptide: Ac-QNDGEI[pY]DDIADG-NH2
notes: flank added to the 11-residue stretch (surmised: last residue of the library's constant GQSGQ); SLAP-130, human, around pY771; flank added to the 11-residue stretch (surmised: first residue of the library's constant GGQSG); source: synthetic peptide (SynPeptide, China)
c-Src SH2 domain
  Kd: 94 nM
Lyn SH2 domain (121-228)
  Kd: 96.8 nM

B6: SIGLEC5 pY544 (peptide)
peptide: Ac-QPSTTE[pY]SEIKTG-NH2
notes: flank added to the 11-residue stretch (surmised: last residue of the library's constant GQSGQ); SIGLEC5, human, around pY544; flank added to the 11-residue stretch (surmised: first residue of the library's constant GGQSG); source: synthetic peptide (SynPeptide, China)
c-Src SH2 domain
  Kd: 282 nM
Lyn SH2 domain (121-228)
  Kd: 362 nM

B7: Syn-G2-5 (synthetic) (peptide)
peptide: Ac-QLGHQR[pY]HNITPG-NH2
notes: source: synthetic peptide (SynPeptide, China)
Grb2 SH2 domain
  Kd: 487 nM

B8: CD3Z pY83 (peptide)
peptide: Ac-QGRREE[pY]DVLDKG-NH2
SMILES: CC(=O)N[C@@H](CCC(N)=O)C(=O)NCC(=O)N[C@@H](CCCNC(=N)N)C(=O)N[C@@H](CCCNC(=N)N)C(=O)N[C@@H](CCC(=O)O)C(=O)N[C@@H](CCC(=O)O)C(=O)N[C@@H](Cc1ccc(OP(=O)(O)O)cc1)C(=O)N[C@@H](CC(=O)O)C(=O)N[C@H](C(=O)N[C@@H](CC(C)C)C(=O)N[C@@H](CC(=O)O)C(=O)N[C@@H](CCCCN)C(=O)NCC(N)=O)C(C)C
notes: flank added to the 11-residue stretch (surmised: last residue of the library's constant GQSGQ); CD3 zeta chain, human, around pY83; flank added to the 11-residue stretch (surmised: first residue of the library's constant GGQSG); also called CD3ζ pY83; source: synthetic peptide (SynPeptide, China)
Lyn SH2 domain (121-228)
  Kd: 2950 nM

B9: CSF1R pY699 (peptide)
peptide: Ac-QEGGVD[pY]KNIHLG-NH2
SMILES: CC[C@H](C)[C@H](NC(=O)[C@H](CC(N)=O)NC(=O)[C@H](CCCCN)NC(=O)[C@H](Cc1ccc(OP(=O)(O)O)cc1)NC(=O)[C@H](CC(=O)O)NC(=O)[C@@H](NC(=O)CNC(=O)CNC(=O)[C@H](CCC(=O)O)NC(=O)[C@H](CCC(N)=O)NC(C)=O)C(C)C)C(=O)N[C@@H](Cc1c[nH]cn1)C(=O)N[C@@H](CC(C)C)C(=O)NCC(N)=O
notes: flank added to the 11-residue stretch (surmised: last residue of the library's constant GQSGQ); CSF1R, human, around pY699; flank added to the 11-residue stretch (surmised: first residue of the library's constant GGQSG); also called CSFR pY699; source: synthetic peptide (SynPeptide, China)
Lyn SH2 domain (121-228)
  Kd: 22800 nM

B10: SLAP-130 pY595 (peptide)
peptide: Ac-QDDQEV[pY]DDVAEG-NH2
notes: flank added to the 11-residue stretch (surmised: last residue of the library's constant GQSGQ); SLAP-130, human, around pY595; flank added to the 11-residue stretch (surmised: first residue of the library's constant GGQSG); also called SLAP-130 Y595; source: synthetic peptide (SynPeptide, China)
c-Src SH2 domain
  Kd: 191 nM
Lyn SH2 domain (121-228)
  Kd: 240 nM

B11: Syn-G2-1 (synthetic) (peptide)
peptide: Ac-QKEAHH[pY]VNWRTG-NH2
notes: as for B7
Grb2 SH2 domain
  Kd: 31.8 nM
c-Src SH2 domain
  Kd: 9660 nM

B12: TRAF3IP3 pY322 (peptide)
peptide: Ac-QEWRSQ[pY]EALKEG-NH2
notes: flank added to the 11-residue stretch (surmised: last residue of the library's constant GQSGQ); TRAF3IP3, human, around pY322; flank added to the 11-residue stretch (surmised: first residue of the library's constant GGQSG); source: synthetic peptide (SynPeptide, China)
c-Src SH2 domain
  Kd: 6480 nM
Lyn SH2 domain (121-228)
  Kd: 3940 nM
